The target of this experiment is murine LFA-1 (on TK1/TK-1 cells or primary murine splenocytes) (murine) (UniProt P24063). As to the kind of experiment: cell-based or functional assay.
Sequence of UniProt P24063 (P24063 24-1162, chain 1 of 2): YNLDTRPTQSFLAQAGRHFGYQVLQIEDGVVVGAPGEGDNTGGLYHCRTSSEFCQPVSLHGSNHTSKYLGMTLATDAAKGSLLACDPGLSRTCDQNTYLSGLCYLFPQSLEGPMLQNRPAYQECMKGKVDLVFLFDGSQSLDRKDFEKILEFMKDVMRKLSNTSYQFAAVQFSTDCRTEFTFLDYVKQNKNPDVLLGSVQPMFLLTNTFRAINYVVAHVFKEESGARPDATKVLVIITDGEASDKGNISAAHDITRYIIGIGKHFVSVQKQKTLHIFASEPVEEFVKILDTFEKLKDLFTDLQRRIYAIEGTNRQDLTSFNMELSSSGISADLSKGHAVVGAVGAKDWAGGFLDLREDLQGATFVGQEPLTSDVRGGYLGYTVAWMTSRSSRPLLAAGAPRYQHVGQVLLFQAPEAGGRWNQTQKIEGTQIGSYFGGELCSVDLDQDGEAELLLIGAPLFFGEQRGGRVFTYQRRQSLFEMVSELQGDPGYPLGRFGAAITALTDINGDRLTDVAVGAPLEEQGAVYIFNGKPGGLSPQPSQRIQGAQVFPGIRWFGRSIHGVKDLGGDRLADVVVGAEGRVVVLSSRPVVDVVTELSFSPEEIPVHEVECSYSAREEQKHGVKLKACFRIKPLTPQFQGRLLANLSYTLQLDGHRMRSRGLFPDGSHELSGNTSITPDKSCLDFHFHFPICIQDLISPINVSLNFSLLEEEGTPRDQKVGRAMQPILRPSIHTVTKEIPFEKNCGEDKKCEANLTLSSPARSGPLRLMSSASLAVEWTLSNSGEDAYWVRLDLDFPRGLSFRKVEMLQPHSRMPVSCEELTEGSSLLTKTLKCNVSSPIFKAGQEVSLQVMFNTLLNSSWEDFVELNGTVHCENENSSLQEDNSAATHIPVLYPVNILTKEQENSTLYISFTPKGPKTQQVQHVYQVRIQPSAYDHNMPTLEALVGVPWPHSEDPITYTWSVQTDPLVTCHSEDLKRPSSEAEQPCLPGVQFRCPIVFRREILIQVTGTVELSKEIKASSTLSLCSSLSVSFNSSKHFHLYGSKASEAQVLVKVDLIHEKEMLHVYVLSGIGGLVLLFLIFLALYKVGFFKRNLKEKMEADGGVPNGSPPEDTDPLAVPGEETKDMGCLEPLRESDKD
Sequence of UniProt P24063 (P11835 24-771, chain 2 of 2, further chain): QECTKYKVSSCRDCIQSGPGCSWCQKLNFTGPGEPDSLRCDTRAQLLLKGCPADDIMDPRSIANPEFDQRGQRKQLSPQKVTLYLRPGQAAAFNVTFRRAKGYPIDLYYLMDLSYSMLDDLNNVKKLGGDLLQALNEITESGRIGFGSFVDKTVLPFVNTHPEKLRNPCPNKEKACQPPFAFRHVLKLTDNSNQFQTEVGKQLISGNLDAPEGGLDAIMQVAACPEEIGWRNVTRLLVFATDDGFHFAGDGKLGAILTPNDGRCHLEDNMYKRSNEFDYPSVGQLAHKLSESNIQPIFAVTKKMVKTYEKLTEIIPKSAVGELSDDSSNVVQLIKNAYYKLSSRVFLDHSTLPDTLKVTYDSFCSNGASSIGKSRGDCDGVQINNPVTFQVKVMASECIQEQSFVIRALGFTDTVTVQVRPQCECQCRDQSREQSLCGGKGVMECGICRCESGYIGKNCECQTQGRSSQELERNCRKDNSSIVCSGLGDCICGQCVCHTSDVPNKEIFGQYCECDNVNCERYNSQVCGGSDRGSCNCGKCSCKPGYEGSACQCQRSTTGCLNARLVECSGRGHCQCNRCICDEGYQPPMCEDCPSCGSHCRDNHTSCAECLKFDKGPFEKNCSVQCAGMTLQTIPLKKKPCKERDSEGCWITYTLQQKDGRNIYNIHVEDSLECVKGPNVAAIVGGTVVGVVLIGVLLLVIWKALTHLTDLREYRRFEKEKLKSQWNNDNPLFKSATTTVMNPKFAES

On to “multimerized ICAM-1-protamine fusion protein (80 pmoles fusion protein with 10 pmoles anti-Fc Fab′2)”, for which the CD45 knockdown in TK-1 cells: subpopulation of CD45-low cells at the 6:1 ratio of siRNA to fusion protein is 14%.

The values are drawn from patent publication US20120100160A1.
